Assay results reported in US20030119727A1 (Genentech, published 2003).
Positions of bridges follow the written chain, without caps; N, C: chain ends. No end group written: not given here.

Key:
[1] = target: T1, recombinant human Factor VIIa (human, UniProt P08709 61-212; P08709 213-466); assay: competition ELISA
T1 chain 1: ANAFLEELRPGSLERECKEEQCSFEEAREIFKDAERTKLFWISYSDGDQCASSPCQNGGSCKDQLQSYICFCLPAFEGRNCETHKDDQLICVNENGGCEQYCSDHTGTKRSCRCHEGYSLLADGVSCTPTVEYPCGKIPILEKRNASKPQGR
T1 chain 2: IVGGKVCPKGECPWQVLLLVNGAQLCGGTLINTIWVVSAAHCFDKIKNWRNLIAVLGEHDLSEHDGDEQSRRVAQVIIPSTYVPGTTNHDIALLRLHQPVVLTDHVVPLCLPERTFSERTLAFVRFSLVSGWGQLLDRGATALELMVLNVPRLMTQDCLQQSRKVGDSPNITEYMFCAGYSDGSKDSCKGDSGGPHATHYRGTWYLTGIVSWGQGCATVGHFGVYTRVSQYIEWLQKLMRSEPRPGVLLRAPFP

[2] = target: T2, recombinant human Factor VIIa (human, UniProt P08709 61-212; P08709 213-466); assay: FVIIa Binding ELISA, competition with 20 nM TF147b on immobilized FVIIa
T2 construct: Immobilized directly on microtiter plates at 2 ug/ml; also called FVIIa
T2 sequence (looked up) 1: T1 chain 1
T2 sequence (looked up) 2: T1 chain 2
Experimental: FVIIa Binding ELISA—The ability of peptides to compete with biotinylated versions of TF76 (e.g. TF147b, or other peptides described herein that could be biotinylated as described) for binding to FVIIa was monitored using a FVIIa Binding ELISA or a TF-FVIIa Binding ELISA. Microtiter plates were coated overnight with 2 μg/ml recombinant human FVIIa or 2 μg/ml TF₁₋₂₄₃ (Paborsky, L. R. et al. (1991) J. Biol. Chem. 266: 21911) in 50 mM ammonium bicarbonate pH 9 at 4° C.; all other steps were performed at room temperature. Plates were then blocked with 1% BSA in Assay Buffer (50 mM HEPES, pH 7.2, 5 mM CaCl₂, 150 mM NaCl). […] The microtiter plate was washed 3 times with Assay Buffer plus 0.05% Tween 20 and the biotinylated-peptide bound was detected with a Streptavidin/HRP conjugate (Streptavidin-POD, Roche Molecular Biochemicals). The amount of HRP bound was measured using ABTS/H₂O₂ substrate (Kirkegaard and Perry Laboratories) and monitoring the absorbance at 405 nm. The absorbance at 405 nm was plotted versus the concentration of peptide originally added to the well. Sigmoidal curves were fit to a four parameter equation by nonlinear regression analysis (Marquardt, J. Soc. Indust. Appl. Math. 11:431-441 (1963); the concentration of each peptide required to give a half-maximal signal in the assay was calculated from the curves and is referred to as the IC₅₀ value. […]

[3] = target: T3, BSA (UniProt P02769 25-607); assay: phage binding to coated wells
T3 construct: Control coating; also called bovine serum albumin

[4] = target: T2, recombinant human Factor VIIa; assay: phage binding to coated wells

T3 sequence (P02769 25-607 limits assumed): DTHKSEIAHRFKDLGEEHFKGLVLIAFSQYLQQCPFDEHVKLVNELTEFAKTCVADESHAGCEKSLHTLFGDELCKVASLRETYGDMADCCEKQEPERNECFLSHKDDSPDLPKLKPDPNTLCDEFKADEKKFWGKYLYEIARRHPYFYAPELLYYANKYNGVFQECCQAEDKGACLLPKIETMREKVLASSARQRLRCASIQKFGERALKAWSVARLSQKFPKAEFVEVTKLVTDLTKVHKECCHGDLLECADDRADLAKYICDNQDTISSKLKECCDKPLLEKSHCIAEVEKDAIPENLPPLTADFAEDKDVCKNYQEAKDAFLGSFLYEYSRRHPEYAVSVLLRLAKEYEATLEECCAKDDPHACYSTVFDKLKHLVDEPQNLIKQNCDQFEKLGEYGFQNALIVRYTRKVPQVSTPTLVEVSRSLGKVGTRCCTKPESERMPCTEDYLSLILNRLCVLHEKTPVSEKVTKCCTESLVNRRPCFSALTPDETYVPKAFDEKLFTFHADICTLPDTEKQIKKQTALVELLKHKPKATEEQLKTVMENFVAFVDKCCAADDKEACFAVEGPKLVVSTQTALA

Binder Ac-ALCDDPRVDRWYCQFVEG-NH2 (disulfide 3-13 (inferred)) [peptide TF76 (Ac-ALCDDPRVDRWYCQFVEG-NH2)] has an IC50 [1] of 21 nM.

B1: peptide TF151 (peptide)
peptide: ALCDNPRIDRWYCQFVEG
modifications: disulfide 3-13 (inferred)
notes: Chemically synthesized, with the disulfide oxidized
B1 showed an IC50 [2] of 2 nM.

In the case of SQAQRRAVGALCDNPRIDRWYCQFVEGGGGSSG (Fc fusion, cysteine pairing not given here; also: fused to human IgG1 Fc, dimer, not shown: Fc portion of the human IgG1) [TF151-Fc fusion], the IC50 [2] is reported as 3 nM.

B2: Phage bearing the TF56 peptide sequence EAALCDDPRLDRWYCIFAGE (Pool E clone, polyvalent phage display) (peptide)
peptide: EAALCDDPRLDRWYCIFAGE
modifications: not fully specified (bridges); cysteine pairing not given here; also: displayed on phage, coat protein fusion partner not given here
notes: also called this clone
B2: no binding [3]; binds [4].
